| Substance | fluorescence read of probe cleavage, recombinant protease assay (Probe #554) | fluorescence read of probe cleavage, recombinant protease assay (Probe #417) | also measured |
| --- | --- | --- | --- |
| MMP1 | Probe #554 sensed MMP1, MMP2, MMP13, MMP14, and DPP4 (FIG. 55F) | Probe #417 sensed MMP1, MMP2, MMP8, MMP13, and MMP14 (FIG. 55C) |  |
| MMP8 |  | Probe #417 sensed MMP1, MMP2, MMP8, MMP13, and MMP14 (FIG. 55C) |  |
| MMP14 | Probe #554 sensed MMP1, MMP2, MMP13, MMP14, and DPP4 (FIG. 55F) | Probe #417 sensed MMP1, MMP2, MMP8, MMP13, and MMP14 (FIG. 55C) |  |
| MMP20 |  |  | fluorescence read of probe cleavage, recombinant protease assay (Probe #117): Probe #117 sensed MMP2 and MMP20 (FIG. 55D) |
| DPP4 | Probe #554 sensed MMP1, MMP2, MMP13, MMP14, and DPP4 (FIG. 55F) |  | fluorescence read of probe cleavage, recombinant protease assay (Probe #411): Probe #411 sensed DPP4 (FIG. 55B); fluorescence read of probe cleavage, recombinant protease assay (Probe #349): Probe #349 sensed MMP2 and DPP4 (FIG. 55A); fluorescence read of probe cleavage, recombinant protease assay (Probe #387): Probe #387 sensed DPP4 (FIG. 55G) |
| MMP2 | Probe #554 sensed MMP1, MMP2, MMP13, MMP14, and DPP4 (FIG. 55F) | Probe #417 sensed MMP1, MMP2, MMP8, MMP13, and MMP14 (FIG. 55C) | fluorescence read of probe cleavage, recombinant protease assay (Probe #349): Probe #349 sensed MMP2 and DPP4 (FIG. 55A); fluorescence read of probe cleavage, recombinant protease assay (Probe #117): Probe #117 sensed MMP2 and MMP20 (FIG. 55D) |
| MMP13 | Probe #554 sensed MMP1, MMP2, MMP13, MMP14, and DPP4 (FIG. 55F) | Probe #417 sensed MMP1, MMP2, MMP8, MMP13, and MMP14 (FIG. 55C) | fluorescence read of probe cleavage, recombinant protease assay (Probe #263): Probe #263 sensed MMP13 (FIG. 55E) |

Reference: patent US20250110130

Chain of MMP2 (P08253 110-660): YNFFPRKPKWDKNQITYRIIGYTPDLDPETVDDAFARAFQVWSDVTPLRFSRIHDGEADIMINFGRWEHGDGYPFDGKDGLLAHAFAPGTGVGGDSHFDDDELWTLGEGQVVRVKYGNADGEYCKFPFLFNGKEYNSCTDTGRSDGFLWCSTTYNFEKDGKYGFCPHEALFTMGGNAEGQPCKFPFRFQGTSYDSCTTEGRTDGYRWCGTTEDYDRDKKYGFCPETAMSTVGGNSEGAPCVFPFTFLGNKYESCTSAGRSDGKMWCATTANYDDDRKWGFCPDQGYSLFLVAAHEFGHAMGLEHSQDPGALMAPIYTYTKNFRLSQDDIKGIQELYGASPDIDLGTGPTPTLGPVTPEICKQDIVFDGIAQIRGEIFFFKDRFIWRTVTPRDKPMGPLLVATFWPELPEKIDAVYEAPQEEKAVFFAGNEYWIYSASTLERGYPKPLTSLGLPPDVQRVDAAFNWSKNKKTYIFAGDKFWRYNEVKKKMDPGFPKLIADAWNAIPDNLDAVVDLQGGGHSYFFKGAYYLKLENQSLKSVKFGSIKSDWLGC
Chain of MMP1 (P03956 100-469): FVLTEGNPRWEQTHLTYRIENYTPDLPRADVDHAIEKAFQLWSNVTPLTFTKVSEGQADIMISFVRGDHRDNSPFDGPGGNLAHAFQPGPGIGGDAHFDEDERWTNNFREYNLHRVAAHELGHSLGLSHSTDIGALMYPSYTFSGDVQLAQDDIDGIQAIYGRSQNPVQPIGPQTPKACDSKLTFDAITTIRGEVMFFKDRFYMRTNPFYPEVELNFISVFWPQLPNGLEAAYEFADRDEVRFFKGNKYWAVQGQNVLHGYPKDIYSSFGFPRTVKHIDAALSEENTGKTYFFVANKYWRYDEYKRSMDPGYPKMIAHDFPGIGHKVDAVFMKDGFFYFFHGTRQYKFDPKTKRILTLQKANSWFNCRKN
Chain of MMP20 (O60882 108-483): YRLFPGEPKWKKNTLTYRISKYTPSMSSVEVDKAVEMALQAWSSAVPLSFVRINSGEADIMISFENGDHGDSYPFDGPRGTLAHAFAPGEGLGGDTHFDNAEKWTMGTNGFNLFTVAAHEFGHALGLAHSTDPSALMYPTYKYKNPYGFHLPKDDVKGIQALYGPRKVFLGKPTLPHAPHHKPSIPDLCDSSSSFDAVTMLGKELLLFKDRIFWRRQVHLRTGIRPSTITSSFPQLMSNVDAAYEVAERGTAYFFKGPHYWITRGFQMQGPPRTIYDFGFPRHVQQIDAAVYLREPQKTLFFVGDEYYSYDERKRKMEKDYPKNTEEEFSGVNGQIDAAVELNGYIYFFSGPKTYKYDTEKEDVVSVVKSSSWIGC
